Values belong to the molecule of their own block, whether it stands above or below them. *1 amine or outer side, *2 acyl side, *3 side chain or, on linkers, in order; H or OH if unused. Bridges are numbered along the chain shown (N, C = ends). Primed or numbered codes have the meaning given here. Where no end group is shown, it is not given here. [ ]: non-standard residue; d: D form. TATA = O=C(CC[*:1])N1CN(C(=O)CC[*:2])CN(C(=O)CC[*:3])C1; 1Nal = N[C@@H](Cc1cccc2ccccc12)C(=O)O; Glutaryl = O=C(CCCC(=O)[*:2])[*:1]; K(Fl) = lysine bearing fluorescein; Hyp = O=C(O)[C@@H]1C[C@@H](O)CN1; hArg = N=C(N)NCCCC[C@H](N)C(=O)O; Cit = NC(=O)NCCC[C@H](N)C(=O)O; MMAE = monomethyl auristatin E; PABC′ = p-aminobenzylcarbamate; βAla = NCCC(=O)O; Sar = CNCC(=O)O
Experiments:
[1] = target: Nectin-4 on the surface of tumour cell lines (UniProt Q96NY8); assay: flow cytometry, PE isotype control on T-47D cells
[2] = target: Nectin-4 on the surface of tumour cell lines (UniProt Q96NY8); assay: flow cytometry, PE isotype control on NCI-526 cells
[3] = target: Nectin-4 on the surface of tumour cell lines (UniProt Q96NY8); assay: flow cytometry, PE isotype control on Panc02.13 cells
[4] = target: Nectin-4 on the surface of tumour cell lines (UniProt Q96NY8); assay: flow cytometry, PE isotype control on MDA-MB-468 cells
[5] = target: Nectin-4 on the surface of tumour cell lines (UniProt Q96NY8); assay: flow cytometry, PE isotype control on HT-29 cells
[6] = target: Nectin-4 on the surface of tumour cell lines (UniProt Q96NY8); assay: flow cytometry, PE isotype control on MDA-MB-468 cells; remark: listed apart in the source
[7] = target: Nectin-4 on the surface of tumour cell lines (UniProt Q96NY8); assay: flow cytometry, PE isotype control on HT1080 cells
[8] = target: Nectin-4 on the surface of tumour cell lines (UniProt Q96NY8); assay: flow cytometry, PE isotype control on NCI-H292 cells
[9] = target: Nectin-4 on the surface of tumour cell lines (UniProt Q96NY8); assay: flow cytometry, PE isotype control on NCI-H358 cells
[10] = target: Nectin-4 on the surface of tumour cell lines (UniProt Q96NY8); assay: flow cytometry, PE isotype control on HCT-116 cells
[11] = target: Nectin-4 on the surface of tumour cell lines (UniProt Q96NY8); assay: flow cytometry, PE isotype control on HT1376 cells
[12] = target: Nectin-4 on the surface of tumour cell lines (UniProt Q96NY8); assay: flow cytometry, PE isotype control on A549 cells
[13] = target: Nectin-4 on the surface of tumour cell lines (UniProt Q96NY8); assay: flow cytometry, PE isotype control on NCI-H526 cells
[14] = target: Nectin-4 on the surface of tumour cell lines (UniProt Q96NY8); assay: flow cytometry, PE isotype control on NCI-H322 cells
[15] = target: Nectin-4 on the surface of tumour cell lines (UniProt Q96NY8); assay: flow cytometry, PE isotype control on NCI-H292 cells; remark: listed apart in the source
[16] = target: Nectin-4 on the surface of tumour cell lines (UniProt Q96NY8); assay: flow cytometry, PE antibody staining of NCI-H358 cells
[17] = target: Nectin-4 on the surface of tumour cell lines (UniProt Q96NY8); assay: flow cytometry, PE antibody staining of HT1080 cells
[18] = target: Nectin-4 on the surface of tumour cell lines (UniProt Q96NY8); assay: flow cytometry, PE antibody staining of MDA-MB-468 cells
[19] = target: Nectin-4 on the surface of tumour cell lines (UniProt Q96NY8); assay: flow cytometry, PE antibody staining of NCI-H322 cells
[20] = target: Nectin-4 on the surface of tumour cell lines (UniProt Q96NY8); assay: flow cytometry, PE antibody staining of HCT-116 cells
[21] = target: Nectin-4 on the surface of tumour cell lines (UniProt Q96NY8); assay: flow cytometry, PE antibody staining of MDA-MB-468 cells; remark: listed apart in the source
[22] = target: Nectin-4 on the surface of tumour cell lines (UniProt Q96NY8); assay: flow cytometry, PE antibody staining of A549 cells
[23] = target: Nectin-4 on the surface of tumour cell lines (UniProt Q96NY8); assay: flow cytometry, PE antibody staining of NCI-H292 cells
[24] = target: Nectin-4 on the surface of tumour cell lines (UniProt Q96NY8); assay: flow cytometry, PE antibody staining of HT1376 cells
[25] = target: Nectin-4 on the surface of tumour cell lines (UniProt Q96NY8); assay: flow cytometry, PE antibody staining of HT-29 cells
[26] = target: Nectin-4 on the surface of tumour cell lines (UniProt Q96NY8); assay: flow cytometry, PE antibody staining of NCI-526 cells
[27] = target: Nectin-4 on the surface of tumour cell lines (UniProt Q96NY8); assay: flow cytometry, PE antibody staining of Panc02.13 cells
[28] = target: Nectin-4 on the surface of tumour cell lines (UniProt Q96NY8); assay: flow cytometry, PE antibody staining of T-47D cells
[29] = target: Nectin-4 on the surface of tumour cell lines (UniProt Q96NY8); assay: flow cytometry, PE antibody staining of NCI-H292 cells; remark: listed apart in the source
[30] = target: Nectin-4 on the surface of tumour cell lines (UniProt Q96NY8); assay: flow cytometry, PE antibody staining of NCI-H526 cells
[31] = target: T1, Nectin-4 on MDA-MB-468 cells (human, UniProt Q96NY8 32-510); assay: column 'Historical Kd (nM)' of the HCS table; method of the historical value not stated
T1 construct: whole, on cells; also called PVRL4; PVRL-4
T1 sequence (looked up): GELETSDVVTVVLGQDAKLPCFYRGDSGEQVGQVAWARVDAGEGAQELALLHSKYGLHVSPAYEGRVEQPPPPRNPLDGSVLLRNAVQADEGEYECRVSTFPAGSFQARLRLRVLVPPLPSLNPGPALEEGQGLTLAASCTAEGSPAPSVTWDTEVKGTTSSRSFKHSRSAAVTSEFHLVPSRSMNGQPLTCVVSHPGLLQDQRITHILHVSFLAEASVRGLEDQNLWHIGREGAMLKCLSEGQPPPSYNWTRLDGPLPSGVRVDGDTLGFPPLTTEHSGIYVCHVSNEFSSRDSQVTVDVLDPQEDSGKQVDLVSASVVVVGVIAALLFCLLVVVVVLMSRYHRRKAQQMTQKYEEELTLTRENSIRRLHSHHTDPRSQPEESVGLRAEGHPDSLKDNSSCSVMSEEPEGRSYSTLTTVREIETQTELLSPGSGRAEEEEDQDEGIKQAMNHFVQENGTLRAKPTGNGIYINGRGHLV

[32] = target: T1, Nectin-4 on MDA-MB-468 cells; assay: HCS assay on MDA-MB-468 cells, bound agent detected with fluorescent antibody to MMAE
Method: HCS assay was used in Nectin-4 BDC binding study. Cells were incubated with test agent and then washed. Detection was by a fluorescent antibody to MMAE.

human Nectin-4 = target: T2, human Nectin-4 (human, UniProt Q96NY8 32-349); assay: FP direct binding
T2 construct: a Gly32-Ser349 FLAG construct is described only under the SPR assay; also called PVRL4
T2 sequence (looked up): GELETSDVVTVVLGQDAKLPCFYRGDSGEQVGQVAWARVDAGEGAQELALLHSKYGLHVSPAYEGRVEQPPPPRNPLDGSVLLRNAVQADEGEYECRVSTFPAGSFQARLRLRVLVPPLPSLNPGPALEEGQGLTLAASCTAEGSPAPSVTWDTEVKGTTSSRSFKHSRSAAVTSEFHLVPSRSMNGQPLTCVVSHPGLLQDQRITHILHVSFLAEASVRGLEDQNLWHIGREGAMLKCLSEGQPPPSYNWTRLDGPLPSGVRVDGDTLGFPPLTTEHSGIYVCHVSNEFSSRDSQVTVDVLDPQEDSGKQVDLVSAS
Method: Affinity of the peptides of the invention for human Nectin-4 (Ki) was determined using a fluorescence polarisation assay, in accordance with the methods disclosed in WO 2016/067035. […] Measurements were conducted on a BMG PHERAstar FS equipped with an “FP 485 520 520” optic module which excites at 485 nm and detects parallel and perpendicular emission at 520 nm. The PHERAstar FS was set at 25° C. with 200 flashes per well and a positioning delay of 0.1 second, with each well measured at 5 to 10 minute intervals for 60 minutes. […] Data was analysed using Systat Sigmaplot version 12.0. mP values were fit to a user defined quadratic equation to generate a Kd value: f=ymin+(ymax−ymin)/Lig*((x+Lig+Kd)/2-sqrt((((x+Lig+Kd)/2)\hat{ }2)-(Lig*x))).

[33] = target: T3, human Nectin-4 (human), Q96NY8; assay: FP competition, tracer SEQ ID NO 217; settings: remark: other sources report otherwise
T3 chain: T2 sequence (looked up)

MFI-Panel [16]: 361
Nectin-4 (percent positive cells) [16]: 90.1%
MFI-Panel [17]: 134
Nectin-4 (percent positive cells) [17]: 1.53%
MFI-Panel [18]: 2320
Nectin-4 (percent positive cells) [18]: 99%
MFI-Panel [19]: 1660
Nectin-4 (percent positive cells) [19]: 99.1%
MFI-Panel [20]: 15.6
Nectin-4 (percent positive cells) [20]: 1.85%
MFI-Panel [21]: 460
Nectin-4 (percent positive cells) [21]: 97.1%
MFI-Panel [22]: 21.6
Nectin-4 (percent positive cells) [22]: 1.07%
MFI-Panel [23]: 149
Nectin-4 (percent positive cells) [23]: 71.1%
MFI-Panel [24]: 803
Nectin-4 (percent positive cells) [24]: 92.4%
MFI-Panel [25]: 88.3
Nectin-4 (percent positive cells) [25]: 40%
MFI-Panel [26]: 12.1
Nectin-4 (percent positive cells) [26]: 1.22%
MFI-Panel [27]: 128
Nectin-4 (percent positive cells) [27]: 51.9%
MFI-Panel [28]: 1810
Nectin-4 (percent positive cells) [28]: 99%
MFI-Panel [29]: 729
Nectin-4 (percent positive cells) [29]: 97.9%
MFI-Panel [30]: 91.3
Nectin-4 (percent positive cells) [30]: 0.21%
Molecule: PE anti-Nectin-4 antibody (R&D, catalog FAB2659P)

Kd [31]: 5.18 nM
Kd [32]: 3.52 nM
Molecule: {MMAE-PABC′-Cit-Val-Glutaryl-βAla}-[Sar][Sar][Sar][Sar][Sar][Sar][Sar][Sar][Sar][Sar]CP[1Nal][dD]CM[hArg]DWSTP[Hyp]WC (linker 11-15-25 via TATA, also called BT8009) [BCY8245 (MMAE-PABC-Cit-Val-Glutaryl-BCY8234)]

Further lines, the molecule ahead of its results:

Molecule: PE isotype control IgG2b (R&D, catalog IC0041P) (antibody)
MFI-Isotype [1]: 132
MFI-Isotype [2]: 8.33
MFI-Isotype [3]: 36.2
MFI-Isotype [4]: 28.9
MFI-Isotype [5]: 20.5
MFI-Isotype [6]: 184
MFI-Isotype [7]: 134
MFI-Isotype [8]: 180
MFI-Isotype [9]: 26.5
MFI-Isotype [10]: 14.5
MFI-Isotype [11]: 36.2
MFI-Isotype [12]: 20.5
MFI-Isotype [13]: 104
MFI-Isotype [14]: 145
MFI-Isotype [15]: 22.9

Molecule: ACPFGCHTDWSWPIWCA[Sar][Sar][Sar][Sar][Sar][Sar]-{K(Fl)} (linker 2-6-16 via TATA, also called fluorescent peptide; tracer) [ACPFGCHTDWSWPIWCA-Sar6-K(Fl) (SEQ ID NO: 217)]
Kd (human Nectin-4): 5 nM

Molecule: ACPFGCMKNWAWPIWCTNK (linker 2-6-16 via TATA) [BCY7424]
Ki [33]: 562 nM

From patent US20210269480A1 (published 2021)
